# Results as given in US20170247475A1 (Boehringer Ingelheim, published 2017).
# Where two headings read alike, the source gives them in different places.
# Tests used:
# hAng2 [1] = target: T1, hAng2; assay: competition ELISA, blocking of hAng2 binding to hTie2
# T1 construct: also called human Ang2
# T1 chain: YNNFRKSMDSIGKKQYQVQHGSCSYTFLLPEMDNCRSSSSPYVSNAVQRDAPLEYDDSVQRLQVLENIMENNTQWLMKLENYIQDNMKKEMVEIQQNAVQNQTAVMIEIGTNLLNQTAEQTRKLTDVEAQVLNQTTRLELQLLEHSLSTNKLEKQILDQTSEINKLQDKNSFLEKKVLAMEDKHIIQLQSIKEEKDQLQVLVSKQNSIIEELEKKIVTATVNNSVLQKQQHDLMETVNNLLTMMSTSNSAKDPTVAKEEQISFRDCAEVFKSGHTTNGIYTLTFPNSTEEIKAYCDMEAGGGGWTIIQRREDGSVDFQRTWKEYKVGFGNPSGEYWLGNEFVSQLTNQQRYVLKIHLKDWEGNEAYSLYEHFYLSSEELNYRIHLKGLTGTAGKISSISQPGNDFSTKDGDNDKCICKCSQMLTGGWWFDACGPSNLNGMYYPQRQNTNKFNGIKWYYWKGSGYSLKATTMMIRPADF
# mAng2 [2] = target: T2, mAng2; assay: competition ELISA, blocking of mAng2 binding to mTie2
# T2 construct: also called mouse Ang2
# T2 chain: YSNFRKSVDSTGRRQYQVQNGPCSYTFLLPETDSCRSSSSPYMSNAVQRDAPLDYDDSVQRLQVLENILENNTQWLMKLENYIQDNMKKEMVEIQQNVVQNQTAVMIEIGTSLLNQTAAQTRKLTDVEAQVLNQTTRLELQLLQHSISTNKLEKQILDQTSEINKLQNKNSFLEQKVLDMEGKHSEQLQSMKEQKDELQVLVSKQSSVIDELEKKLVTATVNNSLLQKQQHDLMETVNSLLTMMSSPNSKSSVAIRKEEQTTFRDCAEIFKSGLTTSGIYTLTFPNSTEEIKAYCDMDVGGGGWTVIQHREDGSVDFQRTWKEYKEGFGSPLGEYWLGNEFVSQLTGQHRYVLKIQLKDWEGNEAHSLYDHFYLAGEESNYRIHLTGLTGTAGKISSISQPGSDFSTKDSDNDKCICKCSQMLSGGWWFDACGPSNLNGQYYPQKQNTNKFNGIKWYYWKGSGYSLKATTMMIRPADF
# cAng2 [3] = target: T3, cAng2 (cynomolgus monkey); assay: competition ELISA, blocking of cAng2 binding to cTie2
# T3 construct: also called cyno Ang2
# hAng2 [4] = target: T4, hAng2; assay: cell-based or functional assay
# T4 chain: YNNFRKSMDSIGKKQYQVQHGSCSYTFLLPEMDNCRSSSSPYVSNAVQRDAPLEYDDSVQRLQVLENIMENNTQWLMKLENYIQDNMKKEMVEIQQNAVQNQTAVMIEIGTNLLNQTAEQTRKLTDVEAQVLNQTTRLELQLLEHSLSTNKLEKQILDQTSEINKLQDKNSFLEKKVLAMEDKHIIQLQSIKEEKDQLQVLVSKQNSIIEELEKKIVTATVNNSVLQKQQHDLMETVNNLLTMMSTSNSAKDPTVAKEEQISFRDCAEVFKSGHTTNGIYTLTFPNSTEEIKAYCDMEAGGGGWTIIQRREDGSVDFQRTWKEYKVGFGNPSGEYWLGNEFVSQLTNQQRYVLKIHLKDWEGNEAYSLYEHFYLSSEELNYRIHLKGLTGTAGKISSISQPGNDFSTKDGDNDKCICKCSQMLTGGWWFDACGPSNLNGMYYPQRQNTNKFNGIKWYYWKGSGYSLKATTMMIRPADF
# hAng2 [5] = target: T4, hAng2; assay: competition ELISA, blocking of hAng2 binding to hTie2-Fc
# mAng2 [6] = target: T5, mAng2; assay: competition ELISA, blocking of mAng2 binding to mTie2-Fc
# T5 construct: may be the same protein as m22 (mouse Ang2-FLD); also called mouse Ang2
# T5 chain: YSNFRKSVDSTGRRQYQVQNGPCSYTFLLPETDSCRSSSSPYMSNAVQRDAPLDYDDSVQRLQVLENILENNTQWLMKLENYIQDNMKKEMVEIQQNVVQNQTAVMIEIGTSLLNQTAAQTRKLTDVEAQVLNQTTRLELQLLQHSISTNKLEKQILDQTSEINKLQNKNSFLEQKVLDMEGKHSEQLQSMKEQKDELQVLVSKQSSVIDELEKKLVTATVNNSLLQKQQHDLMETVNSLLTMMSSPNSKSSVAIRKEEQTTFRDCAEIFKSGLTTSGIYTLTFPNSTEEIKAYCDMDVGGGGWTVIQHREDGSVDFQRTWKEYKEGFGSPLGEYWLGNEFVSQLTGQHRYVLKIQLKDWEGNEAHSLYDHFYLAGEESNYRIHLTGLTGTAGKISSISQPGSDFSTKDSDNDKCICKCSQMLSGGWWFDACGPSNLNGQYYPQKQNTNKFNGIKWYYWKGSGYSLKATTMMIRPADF
# cAng2 [7] = target: T6, cAng2 (cynomolgus monkey); assay: competition ELISA, blocking of cAng2 binding to cTie2-Fc
# T6 construct: may be the same protein as m21 (cyno Ang2-FLD); also called cyno Ang2
# cAng2 [8] = target: T6, cAng2; assay: as above; remark: listed apart in the source
# hAng2 [9] = target: T4, hAng2; assay: competition ELISA, blocking of hAng2 binding to hTie2-Fc
# hAng2 [10] = target: T4, hAng2; assay: cell-based or functional assay
# mAng2 [11] = target: T5, mAng2; assay: competition ELISA, blocking of mAng2 binding to mTie2-Fc
# mAng2 [12] = target: T2, mAng2; assay: competition ELISA, blocking of mAng2 binding to mTie2
# cAng2 [13] = target: T3, cAng2; assay: competition ELISA, blocking of cAng2 binding to cTie2; remark: listed apart in the source
# hAng2 [14] = target: T1, hAng2; assay: competition ELISA, blocking of hAng2 binding to hTie2
# hAng2 [15] = target: T7, hAng2; assay: competition ELISA hAng2/hTie2-Fc; blocked: hTie2-Fc
# T7 construct: also called human Ang2
# T7 chain: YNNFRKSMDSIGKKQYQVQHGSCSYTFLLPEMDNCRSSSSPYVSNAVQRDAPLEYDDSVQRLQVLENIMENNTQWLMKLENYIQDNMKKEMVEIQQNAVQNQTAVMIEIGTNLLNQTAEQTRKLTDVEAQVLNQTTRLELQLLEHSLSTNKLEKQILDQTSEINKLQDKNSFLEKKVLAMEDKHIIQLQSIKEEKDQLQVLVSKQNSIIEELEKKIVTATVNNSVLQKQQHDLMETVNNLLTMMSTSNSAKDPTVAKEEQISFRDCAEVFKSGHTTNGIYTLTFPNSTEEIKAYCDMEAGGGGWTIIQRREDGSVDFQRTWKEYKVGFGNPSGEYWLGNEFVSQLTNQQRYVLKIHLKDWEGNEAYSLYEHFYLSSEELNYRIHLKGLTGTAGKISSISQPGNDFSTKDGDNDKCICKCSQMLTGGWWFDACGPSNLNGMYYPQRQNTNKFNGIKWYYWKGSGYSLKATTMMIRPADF
# Description: The human assay is also performed after incubation of the VHH with 0.5 μM human serum albumin. Additionally, a hAng2 mediated HUVEC survival assay is performed (see Example 5.5; FIG. 29).
binder,measurement,setting,value
"ANGBII00006 (VHH, homodimeric anti-Ang2 VHH; also called 00908-9gs-00908) bivalent VHH: EVQLVESGGGLVQPGGSLRLSCAASGITLDDYAIGWFRQAPGKEREGVSSIRDNGGSTYYADSVKGRFTISSDNSKNTVYLQMNSLRPEDTAVYYCAAVPAGRLRYGEQWYPIYEYDAWGQGTLVTVSSGGGGSGGGSEVQLLESGGGLVQPGGSLRLSCAASGITLDDYAIGWFRQAPGKEREGVSSIRDNGGSTYYADSVKGRFTISSDNSKNTVYLQMNSLRPEDTAVYYCAAVPAGRLRYGEQWYPIYEYDAWGQGTLVTVSS",IC50 (read off the curve),hAng2 [1],~0.02 nM
same,IC50 (read off the curve),mAng2 [2],~0.03 nM
same,IC50 (read off the curve),cAng2 [3],~0.03 nM
00938 (VHH) VHH: EVQLVESGGGLVQPGGSLRLSCAVSGITLDDYAIGWFRQAPGKEREGVSAIRSSGGSTYYADSVKGRFTISSDNSKNTVYLQMNSLRPEDTAVYYCAAVPAGRLRYGEQWYPIYEYDAWGQGTLVTVSS,"IC50 (read off the curve), hAng2 mediated HUVEC survival",hAng2 [4],~5 nM
same,IC50 (read off the curve),hAng2 [5],~0.04 nM
same,IC50 (read off the curve),mAng2 [6],~0.05 nM
same,IC50 (read off the curve),cAng2 [7],~0.09 nM
"00908 (VHH, also called F009100908) VHH: EVQLVESGGGLVQPGGSLRLSCAASGITLDDYAIGWFRQAPGKEREGVSSIRDNGGSTYYADSVKGRFTISSDNSKNTVYLQMNSLRPEDTAVYYCAAVPAGRLRYGEQWYPIYEYDAWGQGTLVTVSS",IC50 (read off the curve),hAng2 [1],~0.04 nM
same,IC50 (read off the curve),mAng2 [2],~0.1 nM
same,IC50 (read off the curve),cAng2 [3],~0.08 nM
00956 (VHH) VHH: EVQLVESGGGLVQPGGSLRLSCAASGFTLDDYAIGWFRQAPGKEREGVSAIRSSGGSTYYADSVKGRFTISSDNSKNTVYLQMNSLRPEDTAVYYCAAVPAGRLRFGEQWYPLYEYDAWGQGTLVTVSS,IC50 (read off the curve),cAng2 [8],~2 nM
same,IC50 (read off the curve),hAng2 [9],~1 nM
same,"IC50 (read off the curve), hAng2 mediated HUVEC survival",hAng2 [10],~6 nM
same,IC50 (read off the curve),mAng2 [11],~3 nM
"ANGBII00001 (VHH, homodimeric anti-Ang2 VHH; also called 1D01-9gs-1D01) bivalent VHH: EVQLVESGGGLVQAGGSLRLSCAASGFTFDDYALGWFRQAAGKEREGVSCIRCSDGSTYYADSVKGRFTISSDNAKNTVYLQMNSLKPEDTAVYYCAASIVPRSKLEPYEYDAWGQGTLVTVSSGGGGSGGGSEVQLVESGGGLVQAGGSLRLSCAASGFTFDDYALGWFRQAAGKEREGVSCIRCSDGSTYYADSVKGRFTISSDNAKNTVYLQMNSLKPEDTAVYYCAASIVPRSKLEPYEYDAWGQGTLVTVSS",IC50 (read off the curve),mAng2 [12],~0.02 nM
same,IC50 (read off the curve),cAng2 [13],~0.03 nM
same,IC50 (read off the curve),hAng2 [14],~0.01 nM
7G08 (VHH) VHH: EVQLVESGGGLVQPGGSLRLSCAASGFALDYYAIGWFRQVPGKEREGVSCISSSDGITYYVDSVKGRFTISRDNAKNTVYLQMNSLKPEDTAVYYCATDSGGYIDYDCMGLGYDYWGQGTQVTVSS,IC50 (read off the curve),hAng2 [15],~0.1 nM
